Measurements as given in patent US20210063414A1, “METHODS FOR PREVENTING AND/OR TREATING BONE LOSS CONDITIONS BY MODULATING IRISIN” (Dana-Farber Cancer Institute, Inc., priority 2018, published 2021).

Columns and labels:
Test in all cases: Crosslinking/co-immunoprecipitation/mass spectrometry (TMT quantitative proteomics) to identify irisin receptors
Format in all cases: binding
[1] = biological target: T1, MLO-Y4 cell surface proteins (Mus musculus, UniProt Q9JHS4); conditions: co-precipitated protein Clpx (CLPX_MOUSE)
T1 construct: endogenous in cells; host or cells: MLO-Y4
T1 sequence (Q9JHS4 57-634): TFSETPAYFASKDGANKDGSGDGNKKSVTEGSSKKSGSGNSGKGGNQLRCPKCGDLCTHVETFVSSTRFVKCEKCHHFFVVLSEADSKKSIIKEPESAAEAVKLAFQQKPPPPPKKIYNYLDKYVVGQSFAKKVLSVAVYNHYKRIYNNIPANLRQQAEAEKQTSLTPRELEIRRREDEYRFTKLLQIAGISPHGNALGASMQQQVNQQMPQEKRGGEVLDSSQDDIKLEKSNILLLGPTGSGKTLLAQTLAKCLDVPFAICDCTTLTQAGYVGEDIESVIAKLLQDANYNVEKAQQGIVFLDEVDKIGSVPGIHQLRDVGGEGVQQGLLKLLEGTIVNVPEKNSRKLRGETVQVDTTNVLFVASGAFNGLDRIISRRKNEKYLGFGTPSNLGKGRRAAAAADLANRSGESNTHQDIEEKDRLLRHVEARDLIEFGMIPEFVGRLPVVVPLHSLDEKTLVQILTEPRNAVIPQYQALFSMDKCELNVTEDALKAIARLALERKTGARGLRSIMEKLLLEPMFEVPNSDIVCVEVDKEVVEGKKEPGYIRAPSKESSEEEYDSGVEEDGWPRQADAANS
How it was run: (§1)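 Mouse MLO-Y4 cells were switched to serum-free FreeStyle medium for 4 h, chilled, then exposed to 10 nM His-tagged irisin (or adipsin as control) for 20 min. Cells were crosslinked with 1.5 mM DTSSP (30 min, ice), and bound proteins were pulled down on Ni-NTA and eluted with 250 mM imidazole. Eluates were separated by SDS-PAGE, trypsin-digested in gel, TMT 6-plex labelled and quantified by MS3-based LC-MS/MS on an Orbitrap Fusion Lumos.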

[2] = biological target: T2, MLO-Y4 cell surface proteins (Mus musculus, UniProt Q6ZQ93); conditions: co-precipitated protein Usp34 (UBP34_MOUSE)
T2 construct: endogenous in cells; host or cells: MLO-Y4
T2 sequence (Q6ZQ93 whole entry): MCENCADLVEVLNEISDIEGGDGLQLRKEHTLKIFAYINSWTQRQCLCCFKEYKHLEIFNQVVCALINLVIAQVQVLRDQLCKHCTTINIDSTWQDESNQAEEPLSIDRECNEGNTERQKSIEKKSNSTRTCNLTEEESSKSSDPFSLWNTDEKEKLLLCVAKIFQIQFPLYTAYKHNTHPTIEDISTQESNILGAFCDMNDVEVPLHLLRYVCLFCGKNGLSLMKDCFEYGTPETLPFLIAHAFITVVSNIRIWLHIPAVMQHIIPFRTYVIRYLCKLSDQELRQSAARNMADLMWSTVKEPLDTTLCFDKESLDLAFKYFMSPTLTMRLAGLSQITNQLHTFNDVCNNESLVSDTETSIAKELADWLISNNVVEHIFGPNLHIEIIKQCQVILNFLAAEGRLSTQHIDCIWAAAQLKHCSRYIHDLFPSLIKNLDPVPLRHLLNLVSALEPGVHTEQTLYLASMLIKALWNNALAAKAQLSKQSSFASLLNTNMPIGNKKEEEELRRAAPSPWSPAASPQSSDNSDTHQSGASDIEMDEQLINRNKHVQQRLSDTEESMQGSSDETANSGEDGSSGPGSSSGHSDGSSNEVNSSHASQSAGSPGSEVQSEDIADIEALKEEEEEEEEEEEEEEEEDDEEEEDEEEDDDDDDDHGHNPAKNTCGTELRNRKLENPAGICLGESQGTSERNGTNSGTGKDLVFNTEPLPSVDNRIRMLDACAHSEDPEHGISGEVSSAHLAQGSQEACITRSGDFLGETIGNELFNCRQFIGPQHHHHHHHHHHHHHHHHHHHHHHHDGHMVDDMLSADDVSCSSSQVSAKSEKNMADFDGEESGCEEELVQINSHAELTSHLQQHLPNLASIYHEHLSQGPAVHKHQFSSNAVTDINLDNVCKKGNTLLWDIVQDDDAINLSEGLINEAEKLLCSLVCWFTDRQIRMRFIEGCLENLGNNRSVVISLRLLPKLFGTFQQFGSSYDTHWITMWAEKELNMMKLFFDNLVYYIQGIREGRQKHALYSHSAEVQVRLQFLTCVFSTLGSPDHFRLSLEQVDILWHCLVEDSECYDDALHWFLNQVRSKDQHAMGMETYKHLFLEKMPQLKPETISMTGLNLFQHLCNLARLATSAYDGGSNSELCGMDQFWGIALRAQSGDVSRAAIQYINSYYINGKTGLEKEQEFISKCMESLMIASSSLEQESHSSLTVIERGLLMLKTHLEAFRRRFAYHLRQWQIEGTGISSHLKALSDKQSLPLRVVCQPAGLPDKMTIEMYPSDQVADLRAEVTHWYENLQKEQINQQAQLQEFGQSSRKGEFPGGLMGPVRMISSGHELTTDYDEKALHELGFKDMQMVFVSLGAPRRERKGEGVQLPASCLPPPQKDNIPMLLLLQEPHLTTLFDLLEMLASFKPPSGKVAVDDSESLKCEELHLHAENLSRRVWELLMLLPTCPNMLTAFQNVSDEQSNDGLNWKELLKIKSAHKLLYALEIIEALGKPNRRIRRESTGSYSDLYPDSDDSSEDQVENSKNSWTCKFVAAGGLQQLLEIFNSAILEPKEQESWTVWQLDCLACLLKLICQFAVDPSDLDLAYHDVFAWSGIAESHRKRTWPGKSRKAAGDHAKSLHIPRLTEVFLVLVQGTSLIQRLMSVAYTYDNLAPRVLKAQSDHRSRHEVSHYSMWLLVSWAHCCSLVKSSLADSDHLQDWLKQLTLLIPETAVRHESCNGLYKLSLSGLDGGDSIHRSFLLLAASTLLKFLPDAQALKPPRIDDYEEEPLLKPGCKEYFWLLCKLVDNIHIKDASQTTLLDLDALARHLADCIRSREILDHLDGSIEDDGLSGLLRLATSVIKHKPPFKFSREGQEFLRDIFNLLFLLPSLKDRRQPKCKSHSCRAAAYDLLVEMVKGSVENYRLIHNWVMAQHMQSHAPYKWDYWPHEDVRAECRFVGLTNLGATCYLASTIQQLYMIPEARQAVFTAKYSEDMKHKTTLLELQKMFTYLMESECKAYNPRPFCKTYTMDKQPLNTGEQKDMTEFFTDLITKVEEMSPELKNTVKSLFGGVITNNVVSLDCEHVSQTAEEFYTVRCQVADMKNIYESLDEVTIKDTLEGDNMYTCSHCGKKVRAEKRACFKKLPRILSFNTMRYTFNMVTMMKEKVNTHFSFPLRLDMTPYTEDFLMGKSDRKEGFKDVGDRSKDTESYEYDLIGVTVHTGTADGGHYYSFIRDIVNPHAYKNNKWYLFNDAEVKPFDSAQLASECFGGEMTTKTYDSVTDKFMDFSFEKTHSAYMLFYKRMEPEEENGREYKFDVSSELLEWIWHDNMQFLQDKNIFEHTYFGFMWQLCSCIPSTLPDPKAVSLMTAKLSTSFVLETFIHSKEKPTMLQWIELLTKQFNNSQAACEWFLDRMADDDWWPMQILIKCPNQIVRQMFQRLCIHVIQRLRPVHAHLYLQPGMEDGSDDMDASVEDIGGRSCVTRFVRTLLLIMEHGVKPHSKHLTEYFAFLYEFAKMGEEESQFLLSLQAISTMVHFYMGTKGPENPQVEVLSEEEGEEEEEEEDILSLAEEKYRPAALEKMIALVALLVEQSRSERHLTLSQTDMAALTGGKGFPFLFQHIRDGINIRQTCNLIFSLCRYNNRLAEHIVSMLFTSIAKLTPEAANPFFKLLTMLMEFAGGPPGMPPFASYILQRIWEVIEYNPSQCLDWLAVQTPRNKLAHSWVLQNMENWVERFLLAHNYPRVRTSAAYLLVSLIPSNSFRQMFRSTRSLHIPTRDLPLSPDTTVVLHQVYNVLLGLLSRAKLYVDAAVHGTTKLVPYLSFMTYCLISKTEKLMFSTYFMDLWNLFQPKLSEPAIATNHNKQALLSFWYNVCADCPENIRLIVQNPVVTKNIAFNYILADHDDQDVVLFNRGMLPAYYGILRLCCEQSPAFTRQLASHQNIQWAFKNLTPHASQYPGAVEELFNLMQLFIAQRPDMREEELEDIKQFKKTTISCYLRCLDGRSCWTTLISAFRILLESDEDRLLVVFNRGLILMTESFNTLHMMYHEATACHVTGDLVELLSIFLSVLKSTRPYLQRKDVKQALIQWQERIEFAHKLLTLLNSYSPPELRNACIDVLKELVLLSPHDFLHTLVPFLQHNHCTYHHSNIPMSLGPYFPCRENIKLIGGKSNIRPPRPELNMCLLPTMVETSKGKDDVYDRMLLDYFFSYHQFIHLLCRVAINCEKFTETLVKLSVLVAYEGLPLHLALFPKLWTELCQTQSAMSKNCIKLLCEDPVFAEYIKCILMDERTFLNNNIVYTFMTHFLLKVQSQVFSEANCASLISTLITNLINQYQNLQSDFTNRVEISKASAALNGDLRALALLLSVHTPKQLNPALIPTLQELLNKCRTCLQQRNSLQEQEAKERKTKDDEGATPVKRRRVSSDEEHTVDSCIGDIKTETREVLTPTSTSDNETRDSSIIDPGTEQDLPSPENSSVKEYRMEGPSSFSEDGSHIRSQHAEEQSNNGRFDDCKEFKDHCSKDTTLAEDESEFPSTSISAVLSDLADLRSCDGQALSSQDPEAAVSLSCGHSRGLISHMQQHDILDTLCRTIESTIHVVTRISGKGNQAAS
How it was run: as §1

[3] = biological target: T3, MLO-Y4 cell surface proteins (Mus musculus, UniProt E9Q9D8); conditions: co-precipitated protein Ankrd35 (E9Q9D8_MOUSE)
T3 construct: endogenous in cells; host or cells: MLO-Y4
T3 sequence (E9Q9D8 1-996): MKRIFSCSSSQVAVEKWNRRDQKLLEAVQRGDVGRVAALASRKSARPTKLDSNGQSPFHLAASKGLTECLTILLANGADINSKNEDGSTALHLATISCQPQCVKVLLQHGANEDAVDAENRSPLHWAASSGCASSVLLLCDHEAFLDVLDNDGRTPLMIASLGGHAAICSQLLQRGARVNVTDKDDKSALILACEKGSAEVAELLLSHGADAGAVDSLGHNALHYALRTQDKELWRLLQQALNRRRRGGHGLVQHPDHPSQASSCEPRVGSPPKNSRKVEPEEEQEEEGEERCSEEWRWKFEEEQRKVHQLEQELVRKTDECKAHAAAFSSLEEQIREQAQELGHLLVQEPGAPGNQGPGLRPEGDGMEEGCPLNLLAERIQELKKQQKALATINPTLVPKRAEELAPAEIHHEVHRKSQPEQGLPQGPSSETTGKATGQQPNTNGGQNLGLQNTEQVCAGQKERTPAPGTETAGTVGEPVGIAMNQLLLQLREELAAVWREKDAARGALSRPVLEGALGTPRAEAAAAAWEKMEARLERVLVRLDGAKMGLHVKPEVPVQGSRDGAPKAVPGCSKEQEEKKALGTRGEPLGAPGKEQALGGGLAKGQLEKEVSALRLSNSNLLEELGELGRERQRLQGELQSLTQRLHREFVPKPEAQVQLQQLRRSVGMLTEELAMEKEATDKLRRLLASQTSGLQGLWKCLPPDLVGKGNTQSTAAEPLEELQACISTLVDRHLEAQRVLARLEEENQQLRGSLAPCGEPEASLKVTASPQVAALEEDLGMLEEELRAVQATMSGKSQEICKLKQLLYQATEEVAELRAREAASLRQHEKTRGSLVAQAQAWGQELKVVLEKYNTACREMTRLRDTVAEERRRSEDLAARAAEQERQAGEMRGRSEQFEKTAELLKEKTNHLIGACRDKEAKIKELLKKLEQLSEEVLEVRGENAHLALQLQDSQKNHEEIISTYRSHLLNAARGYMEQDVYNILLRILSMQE
How it was run: as §1

- TMT signal-to-noise ratio [1]: 1517.78
- TMT signal-to-noise ratio [2]: 1044.49
- TMT signal-to-noise ratio [3]: 314.798
Substance: adipsin
